In test [1] the target is T1, hMRP5-Δ1-94 (human, UniProt O15440 95-1437).
T1 construct: human multidrug resistance protein 5 (MRP5, ABCC5), UniProt O15440, without the flexible N-terminal region Met1-Thr94; This is the construct used for cryo-EM; Plasmids and primers are in Supplementary Data 1 and 2; also called hMRP5-Δ1-94 truncation mutant; apo form; source: HEK293F, transfected, purified (strep-Tactin, SEC on Superose 6 Increase, digitonin)
Description: cryo-EM structure; peptide M5PI and hMRP5-Δ1-94 incubated on ice at a ratio of 2:1 for 1 h before vitrification; digitonin. The conditions noted are these: both partners purified.

The target in test [2] is T2, hMRP5-Δ1-94-8xHis (human, UniProt O15440 95-1437, RED-tris-NTA 2nd Generation dye on the His tag).
T2 construct: human multidrug resistance protein 5 (MRP5, ABCC5), UniProt O15440, without the flexible N-terminal region Met1-Thr94; Plasmids and primers are in Supplementary Data 1 and 2; source: HEK293F, transfected; digitonin-purified (HEPES buffer instead of Tris)
The experiment in a line: MST; digitonin-purified hMRP5-Δ1-94-8xHis labelled with RED-tris-NTA 2nd Generation dye; serially diluted peptides; 15 min at room temperature; HEPES buffer; 3% LED/excitation power, medium MST power (Monolith NT). The settings on record: both partners purified.

T1 sequence (O15440 95-1437, stated change not applied): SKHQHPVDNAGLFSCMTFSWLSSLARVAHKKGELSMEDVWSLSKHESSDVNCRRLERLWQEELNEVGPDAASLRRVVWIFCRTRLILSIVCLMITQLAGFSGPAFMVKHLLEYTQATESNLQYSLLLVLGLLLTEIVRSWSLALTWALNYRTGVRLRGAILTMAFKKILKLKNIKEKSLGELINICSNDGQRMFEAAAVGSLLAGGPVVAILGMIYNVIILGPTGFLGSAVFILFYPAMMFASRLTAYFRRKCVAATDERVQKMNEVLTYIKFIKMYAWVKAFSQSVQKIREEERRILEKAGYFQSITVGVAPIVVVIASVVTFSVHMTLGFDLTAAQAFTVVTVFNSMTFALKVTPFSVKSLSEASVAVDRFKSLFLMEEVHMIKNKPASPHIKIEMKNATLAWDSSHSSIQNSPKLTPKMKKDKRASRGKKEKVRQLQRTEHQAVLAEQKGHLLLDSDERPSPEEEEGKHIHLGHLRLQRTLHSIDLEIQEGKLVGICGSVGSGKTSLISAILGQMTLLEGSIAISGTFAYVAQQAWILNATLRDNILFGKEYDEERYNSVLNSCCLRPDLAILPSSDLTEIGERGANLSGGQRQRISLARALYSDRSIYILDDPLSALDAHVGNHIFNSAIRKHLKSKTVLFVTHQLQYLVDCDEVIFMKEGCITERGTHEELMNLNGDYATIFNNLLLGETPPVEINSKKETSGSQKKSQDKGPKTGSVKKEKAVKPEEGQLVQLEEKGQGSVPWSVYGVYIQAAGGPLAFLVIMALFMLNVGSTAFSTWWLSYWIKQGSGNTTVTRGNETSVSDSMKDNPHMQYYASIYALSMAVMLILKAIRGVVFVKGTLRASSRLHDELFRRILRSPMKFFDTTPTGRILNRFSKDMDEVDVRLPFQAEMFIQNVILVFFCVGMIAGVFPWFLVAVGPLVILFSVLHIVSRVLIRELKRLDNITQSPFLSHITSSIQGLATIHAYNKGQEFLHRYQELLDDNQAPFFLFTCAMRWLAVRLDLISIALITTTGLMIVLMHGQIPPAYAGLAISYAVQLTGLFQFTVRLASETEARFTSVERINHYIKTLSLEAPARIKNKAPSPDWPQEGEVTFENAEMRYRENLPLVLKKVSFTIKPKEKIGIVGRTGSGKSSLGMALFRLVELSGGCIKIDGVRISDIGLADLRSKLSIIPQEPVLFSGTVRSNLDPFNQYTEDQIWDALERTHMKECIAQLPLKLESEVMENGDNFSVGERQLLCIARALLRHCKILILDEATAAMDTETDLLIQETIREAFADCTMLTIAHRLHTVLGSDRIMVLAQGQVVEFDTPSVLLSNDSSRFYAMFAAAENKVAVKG
T2 sequence (O15440 95-1437, stated change not applied): as above

B1: MRP5 potential peptide inhibitor (M5PI) (peptide, UniProt O15440 35-75, looked up)
peptide: CSKFRRTRPLECQDALETAARAEGLSLDASMHSQLRILDEC
notes: stretch 35-75 of the N-terminal loop of human MRP5 (UniProt O15440) with both terminal residues replaced by cysteine; The cysteines were meant for cyclisation; also called D35C-E75C; Asp35Cys-Glu75Cys; source: synthetic peptide (GL Biochem, Shanghai)
With B1, the binding result in test [1] and in test [2] was “binds” throughout.
